In the supplement of paper PMC12042874:
± gives the uncertainty stated by the source.

Experiment: amyloid nucleation score (Sup35N fusion, yeast selection) (log enrichment); library NNK2; higher = more nucleation; inactive = no reads after selection
Procedure, shortened: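 Sup35N was fused to peptides of 20 random codons and expressed in psi-negative yeast, which were induced with 100 μM copper sulfate for 24 hours and then grown on medium lacking adenine and uracil for 7 days at 30°C. Plasmid inserts from input and output were sequenced on Illumina. The nucleation score is the DiMSum log enrichment of output over input reads, centred on the mode score of non-aggregating sequences. Sequences with under 100 input reads were left out, and random libraries had three technical output replicates.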

| Substance | amyloid nucleation score |
| --- | --- |
| LNCYFGHRDPIFSRMNICDY | -0.469 ± 1.1 |
| FWLNMYSVETVYGVVFAWEK | -0.694 ± 0.31 |
| EVFACTSG | 1.56 ± 0.44 |
| VVNCCGWMVPVGPSHW | 10.32 ± 0.035 |
| FWVLDSSADYRAS | 5.62 ± 0.075 |
| DGFVVASISWGSNFLVFFIY | inactive |
| NRKTSGLYVFRWRKRPR | 0.264 ± 0.4 |
| NFILLDLLSLAICASRVLWA | 1.56 ± 0.087 |
| VRLLSFEINSWWLCACCRSV | 7 ± 0.076 |
| SYPACRNRAVVRARGVVNLW | 2.7 ± 0.18 |
| SFVCWITVCNFRVSQ | 3.21 ± 0.12 |
| ICKGVRKIWSFGDMSWCRES | inactive |
| FLVIVQPSHFGCSKSNKGVW | 0.453 ± 0.66 |
| CAGPPLLAKVGWIIMYSLVV | 0.258 ± 0.55 |
| FACFI | 0.271 ± 0.25 |
| DKIRTSKAISQIWLLPIYFE | 0.491 ± 0.57 |
| SCFLNMTLILDLVITGMMPR | -0.251 ± 0.32 |
| MPQWKL | -0.205 ± 0.74 |
| SGWWTKHRTMLKYYTLFAMG | -0.449 ± 0.44 |
| AAAHLH | -0.75 ± 0.76 |
| SVVLFEYGWICEIIEGSDII | inactive |
| ALSDCL | -0.427 ± 0.45 |
| RAANYCGLKQAWSGFKRCVA | 0.496 ± 0.36 |
| GSELMTSLSFVCGHVAAPAD | 0.669 ± 0.54 |
| LLLLWYRNQPHITDAFRQEL | 0.733 ± 0.44 |

| Substance | amyloid nucleation score |
| --- | --- |
| FLDKCVRSSIENYWV | -0.074 ± 1.1 |
| DGNWL | -0.385 ± 0.76 |
| THKNLEC | 0.681 ± 0.17 |
| GNVGTRPQINTGSVCYMSCI | 4.6 ± 0.057 |
| CSESFGCRTPPSLNMLVCN | -0.729 ± 1.1 |
| DYLCGNFKCYCVFTNDGNRF | 2.42 ± 0.21 |
| PHDVFRWCVCAVPGSERSTG | 0.815 ± 0.25 |
| TYLDGAYLLFDSARFAKAVK | 0.144 ± 0.24 |
| FNRLA | -0.603 ± 1.1 |
| DVPLCLYCMYLSSFRVVIWM | 2.35 ± 0.1 |
| LLFMVIFDRECRVIIHCGTM | -0.21 ± 0.34 |
| IPALN | -0.963 ± 0.55 |
| STVPRVSLLLAPCQVIVAWE | 5.449 ± 0.05 |
| SLSYDWFASHLWTYDGW | -1.03 ± 0.34 |
| QCLYWV | inactive |
| FHQIKFRVSFMHCRTSSANI | 2.25 ± 0.089 |
| IQSFVKYKNVSRMYLTCPNL | 1.2 ± 0.2 |
| SMAFREILLLMGSMLSCIRS | -0.956 ± 1 |
| GIQVNYRWLGFGVGKRKARL | 5.547 ± 0.043 |
| FFDYIGRYYNLKH | inactive |
| HIDEYKWT | 0.546 ± 0.8 |
| MYLVYHYLSVRAFLFMSTMV | -0.39 ± 0.61 |
| FALLPCDKVCLGVREWFNFG | inactive |
| LMTSYLRSPDSAPETLRE | -0.484 ± 0.49 |
| IDFRISLCVRFFGCFLLDYY | -0.618 ± 0.76 |

| Substance | amyloid nucleation score |
| --- | --- |
| HYSGGCSLPSVKERVGTSIG | -0.604 ± 0.76 |
| DDFGCLYFYILYS | inactive |
| TTDSGAVYSGLPE | 0.542 ± 0.19 |
| VIEYRVFRKYPCNCFLRGLS | -0.865 ± 0.39 |
| SGRYFRIRRPYEDCQGREVA | 1.22 ± 0.38 |
| FAKCHFSQSARYIY | inactive |
| RYGFSVSITMIFYRGGFCRW | inactive |
| YDSTVFTITWAKWDVYSLST | 2.36 ± 0.096 |
| LWGFMCFFW | -1.41 ± 0.29 |
| GEQMWGYCRLYRGTGRGALG | 1.85 ± 0.16 |
| DLIYGGYST | inactive |
| MEVADC | 0.591 ± 0.35 |
| NGFNYFKMW | -1.65 ± 1.1 |
| IANRGNAKHVRWICMMHHRS | 0.479 ± 0.41 |
| GGERMRSRKYEYGGWNMCYY | inactive |
| SYILGILFVFYVCETKYLYL | 0.328 ± 0.25 |
| CDVNYL | -0.681 ± 0.3 |
| RIGDRSCSVRKEHKDAQWSI | 0.196 ± 0.77 |
| VYMHASCSERSMDESRNRVD | inactive |
| SSVISLNILFFMGEPENSLL | 6.424 ± 0.05 |
| YAYAEWERNRWRRDDNLNVE | -0.251 ± 0.38 |
| WRAKAFSEKFIERRWDVGMN | -1.18 ± 0.62 |
| CFGRMVTSNSSDLRYSNDRL | 1.56 ± 0.097 |
| FSSWAFLMSRLCYHDSESHL | 0.417 ± 0.16 |
| LNFIRCYVSPCVSFLSLYII | inactive |

| Substance | amyloid nucleation score |
| --- | --- |
| YWNDSSRYGQVGVEYC | 0.49 ± 0.8 |
| MLMRNFSNSNLLAENFMQMR | 0.138 ± 1.1 |
| DFCSLATYGKRGFCDMYYYV | 0.343 ± 0.35 |
| RRGTQVFCCDYWSARGSWT | 8.749 ± 0.062 |
| FVYWFKYT | -1.2 ± 1.1 |
| YKLAFQSYIDGLLIL | inactive |
| LSFLKVW | -0.654 ± 0.36 |
| SFLVSFHPMS | -1.33 ± 0.48 |
| WFGYMALPR | 4.63 ± 0.064 |
| WCLMVGFMFMCRYDGNQSDG | 2.98 ± 0.051 |
| FYRGT | -0.974 ± 0.55 |
| LVSFRKPILTSQ | 0.164 ± 0.8 |
| CFDCNIRGSVWKVYISLIVG | inactive |
| KSVRIWPSVSAGTRRLKQS | inactive |
| FHDNVTQFFISISAKIYKA | 4.45 ± 0.058 |
| GDHVVFNWRAHSSSRIVSSY | 1.17 ± 0.68 |
| ISFYQWRPWNFLRYRRGNAH | 0.237 ± 0.31 |
| LGVMRIVHVGLWSAR | -0.249 ± 0.55 |
| WPNFV | -0.995 ± 0.76 |
| MTFENFSSSHSWTDLLFLFI | 3.43 ± 0.078 |
| VGRCTINFIRLRDWVRLRQN | -0.082 ± 0.6 |
| FLFVNDVGRE | inactive |
| ARIAETSRYKRSENSLSLV | -0.88 ± 0.76 |
| IQVMSDMFKCDVTNVMGRRG | 2.99 ± 0.094 |
| FLVLGFMIWYTLRCLALTFS | inactive |

| Substance | amyloid nucleation score |
| --- | --- |
| TAVVLTTGLHVIQVLWHN | 2.94 ± 0.12 |
| VYYLVSLGLT | 1.91 ± 0.14 |
| VNFRVGCLVSYMNVK | 2.6 ± 0.13 |
| HDYFTYT | 4.83 ± 0.059 |
| KPWVTLLVCCSVYRFFMYYA | 4.96 ± 0.081 |
| LYPWRMTCYK | -1.34 ± 0.76 |
| TGYAWGG | 2.16 ± 0.22 |
| FKSLLCLFAWRLVTFHVGE | -0.73 ± 1.1 |
| IVLSDSISQAFWASICHQGF | -1.55 ± 1.1 |
| TQSWDEWSYGNITGSTSYRL | 0.25 ± 0.23 |
| CLSRLNVLWYSPFKHFILEC | -0.267 ± 0.45 |
| FDLCTLFYNSRFHIIRYWVT | inactive |
| SFTYASSV | -1.1 ± 0.28 |
| CSLPCVTNWCRRRNMVSQPV | -1.11 ± 1.1 |
| VWYLFKNAFHMVFKTEWYEG | -1.52 ± 0.54 |
| PSWSAKTCACWNKAYPIVEI | 0.633 ± 0.47 |
| LYAVRPLTVGTKCYMMRGLL | -1.59 ± 0.49 |
| RVTSEIWGCGGGFREECIKE | 0.143 ± 0.5 |
| HIIISKYHINYCRMMNYSGK | 8.137 ± 0.056 |
| ILSLMLRSVWRSVLLVLQ | inactive |
| AHLVCRLYETMQLYLYLQWY | -1.01 ± 0.3 |
| QFSLLDHITCQPLPTLFLS | 7.91 ± 0.065 |
| NACYIDFGRTAVSTVLAILY | 3.41 ± 0.09 |
| QYMYLYIKRMMYSSTKKF | inactive |
| YHCVEYLGARL | 0.083 ± 0.63 |

| Substance | amyloid nucleation score |
| --- | --- |
| MFSSMSVLCKYILASWASHK | -0.58 ± 0.63 |
| PSVCKWCYMKCRRRTCFSQL | inactive |
| KVANRYIK | 0.136 ± 0.32 |
| LIADLQKFSYVSWAGCMTY | 4.4 ± 0.085 |
| ANKKIDSGNGLLDFQQNSQK | -0.249 ± 1 |
| DVETL | -1.24 ± 0.41 |
| RTLLSSCKIATSLWHMCYPQ | -0.381 ± 1.1 |
| VDLRQCENLHRPWRFRRSGK | 1.4 ± 0.2 |
| FVWSKSR | 2.88 ± 0.13 |
| LMFMLRYPLHASWLGSTHVY | 0.422 ± 0.44 |
| FGSVSSWELPRP | 0.197 ± 0.63 |
| LSKHPYGCVL | 0.862 ± 0.66 |
| YVNMAVNLTTDGQMTWNSRT | 6.65 ± 0.035 |
| FPWQSSDYFWNHARRS | -0.043 ± 0.6 |
| MSPYL | 0.479 ± 0.8 |
| TYEIFLVPS | 0.41 ± 0.74 |
| LWMCKTFYGAGLSPVVK | -0.038 ± 1 |
| VGDSMMWVTDRAKGVPYGGD | 0.285 ± 0.65 |
| YILAFVILAMEAWHRV | 3.68 ± 0.086 |
| FPFLDGVVLSKEFYNLR | -1 ± 1 |
| AELSA | 0.606 ± 0.8 |
| NQTCTE | 0.7 ± 0.66 |
| DMWMRVILSDNGNQEVPK | -0.293 ± 0.27 |
| DKPLQWHGCVRKKSTRGRGW | 0.927 ± 0.45 |
| CIFFLVV | 4.79 ± 0.071 |

| Substance | amyloid nucleation score |
| --- | --- |
| NGYRG | 0.376 ± 0.53 |
| FENDFMRVSCDGSRGILCVL | 2.48 ± 0.11 |
| VYTTLPYSFGGYNCYMSSRL | inactive |
| DCLFLKVSPLVHQYYWIGFD | 0.306 ± 0.8 |
| VMYKAFFRYFGR | 1.71 ± 0.24 |
| KNSWAAVPRSEEYCREVIGH | 0.482 ± 0.56 |
| FSWDPGMIWGKI | 7.203 ± 0.053 |
| LCSLDSMPHSYITCSAKRLI | -0.443 ± 0.3 |
| CDFMYRLMSTYTHTFLVSLR | 1.41 ± 0.14 |
| FIMYFVASRVNSYSSTLRVN | inactive |
| YIPNDCTTRDCLTYMMSWMF | -0.077 ± 0.63 |
| LGWRVGWYASDAFYKPEWFD | -0.53 ± 0.41 |
| FKRDLMLYFCCSWCRKVCVY | -0.432 ± 0.34 |
| VYYLDSV | 0.978 ± 0.74 |
| QYGCMEYRHNKCNQREVCRY | 0.281 ± 0.5 |
| LQVVVMFCPSL | 8.29 ± 0.024 |
| QTSYMDYKYRMGFLS | -0.69 ± 0.63 |
| CCMCCNDYCRPCFREGVWIG | -0.121 ± 1.1 |
| DVQGWFVITSGFADGSQARR | 1.19 ± 0.17 |
| CLNWKYKNRELQVFNDSRVV | -2.77 ± 0.75 |
| LAGGCRRTPAVINRLFVKTA | 0.374 ± 0.4 |
| CCSFNLISLYSKVRARSELP | 8.765 ± 0.029 |
